Molecular target: the molecule itself
Assay: cryo-EM structure; purified SUR1/Kir6.2 KATP channel in digitonin, 1 mM ATP (no Mg2+) and 1 µM glibenclamide; C4 symmetry imposed; 3.63 Å

B1: rat Kir6.2 (natural protein)
chain: MLSRKGIIPEEYVLTRLAEDPTEPRYRTRERRARFVSKKGNCNVAHKNIREQGRFLQDVFTTLVDLKWPHTLLIFTMSFLCSWLLFAMVWWLIAFAHGDLAPGEGTNVPCVTSIHSFSSAFLFSIEVQVTIGFGGRMVTEECPLAILILIVQNIVGLMINAIMLGCIFMKTAQAHRRAETLIFSKHAVITLRHGRLCFMLRVGDLRKSMIISATIHMQVVRKTTSPEGEVVPLHQVDIPMENGVGGNSIFLVAPLIIYHVIDSNSPLYDLAPSDLHHHQDLEIIVILEGVVETTGITTQARTSYLADEILWGQRFVPIVAEEDGRYSVDYSKFGNTVKVPTPLCTARQLDEDRSLLDALTLASSRGPLRKRSVAVAKAKPKFSISPDSLS
notes: the final model holds residues 32-352, the distal N- and C-termini were not seen in the map; source: INS-1 clone 832/13 cells, infected with recombinant adenovirus, co-expressed with FLAG-SUR1; purified as the channel complex (digitonin, anti-FLAG M2 agarose, FLAG peptide elution)
stoichiometry N: 4

From paper PMC5655142, “Anti-diabetic drug binding site in a mammalian KATP channel revealed by Cryo-EM” (eLife, 2017)
